Measured values: patent publication US20260224736A1 (Sanofi, published 2026)

T1: human CD105 (human, UniProt P17813 26-658)
T1 construct: whole, on cells; The target is presented on primary human HSCs; also called HuCD105; endoglin
T1 sequence (looked up): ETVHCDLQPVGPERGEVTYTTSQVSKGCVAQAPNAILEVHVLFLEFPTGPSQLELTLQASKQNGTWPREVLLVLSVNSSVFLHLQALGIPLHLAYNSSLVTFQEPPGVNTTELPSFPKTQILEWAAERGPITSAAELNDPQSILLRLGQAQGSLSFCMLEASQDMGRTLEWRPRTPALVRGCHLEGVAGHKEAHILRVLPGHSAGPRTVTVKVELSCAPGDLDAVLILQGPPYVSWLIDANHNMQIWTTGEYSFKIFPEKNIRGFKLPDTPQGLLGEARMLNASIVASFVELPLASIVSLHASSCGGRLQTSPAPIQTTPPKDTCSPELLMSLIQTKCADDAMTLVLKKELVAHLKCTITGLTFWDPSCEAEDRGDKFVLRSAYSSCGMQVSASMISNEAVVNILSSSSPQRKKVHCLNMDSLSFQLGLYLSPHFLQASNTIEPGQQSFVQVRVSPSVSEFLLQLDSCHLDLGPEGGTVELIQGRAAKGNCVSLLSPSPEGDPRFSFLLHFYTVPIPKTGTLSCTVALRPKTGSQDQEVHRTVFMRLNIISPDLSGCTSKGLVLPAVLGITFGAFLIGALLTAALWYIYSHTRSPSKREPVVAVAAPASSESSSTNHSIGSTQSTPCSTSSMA


How the values were obtained:
human CD117 = molecular target: T2, human CD117 (human, UniProt P10721 26-976); experiment: flow cytometry of primary human HSCs treated with Fab-conjugated KC3 LNPs; DiI fluorescence as measure of LNP binding
T2 construct: whole, on cells; The target is presented on primary human HSCs, either in vitro or engrafted in NSG mice; No recombinant CD117 was used; also called HuCD117; c-kit
Text: (§1) For conjugation with full-length antibodies, the LNPs were fused with a streptavidin moiety, and the conjugated full-size antibodies were tagged with biotin. Specifically, lysine groups on the streptavidin were reacted with Traut's reagent to covalently attach thiol groups. The thiolated streptavidin was then conjugated to DSPE-PEG(2k)-maleimide via covalent coupling between the maleimide group and the thiol groups attached to the streptavidin. The streptavidin-fused lipid was then reacted with the biotinylated antibody. Finally, the lipid-streptavidin-antibody conjugate was inserted into the LNP by incubation at 60° C. for 1 hour. The LNPs also incorporated a fluorescent lipid dye,′,1′-Dioctadecyl-3,′,3′,3′-Tetramethylindocarbocyanine-5,5′-Disulfonic Acid (DiIC(18)5-DS). The GFP mRNA was used to measure transfection, as the mRNA must enter the cell and escape the endosome to be transcribed into protein, allowing for fluorescence. The DiIC(18)5-DS was used as a measure of LNP targeting because the cells will have DiI fluorescence so long as the LNPs are capable of binding to the HSCs. Therefore, GFP expression provided a measure of LNP transfection while DiI positive events were representative of Fabs that target H—SCs. […] The HSCs were incubated with the LNPs for 24 and 72 hours, after which the GFP fluorescence and DiI fluorescence were measured using flow cytometry.

human CD105 = molecular target: T1, human CD105; experiment: as above
Text: as §1

T2 sequence (P10721 26-976): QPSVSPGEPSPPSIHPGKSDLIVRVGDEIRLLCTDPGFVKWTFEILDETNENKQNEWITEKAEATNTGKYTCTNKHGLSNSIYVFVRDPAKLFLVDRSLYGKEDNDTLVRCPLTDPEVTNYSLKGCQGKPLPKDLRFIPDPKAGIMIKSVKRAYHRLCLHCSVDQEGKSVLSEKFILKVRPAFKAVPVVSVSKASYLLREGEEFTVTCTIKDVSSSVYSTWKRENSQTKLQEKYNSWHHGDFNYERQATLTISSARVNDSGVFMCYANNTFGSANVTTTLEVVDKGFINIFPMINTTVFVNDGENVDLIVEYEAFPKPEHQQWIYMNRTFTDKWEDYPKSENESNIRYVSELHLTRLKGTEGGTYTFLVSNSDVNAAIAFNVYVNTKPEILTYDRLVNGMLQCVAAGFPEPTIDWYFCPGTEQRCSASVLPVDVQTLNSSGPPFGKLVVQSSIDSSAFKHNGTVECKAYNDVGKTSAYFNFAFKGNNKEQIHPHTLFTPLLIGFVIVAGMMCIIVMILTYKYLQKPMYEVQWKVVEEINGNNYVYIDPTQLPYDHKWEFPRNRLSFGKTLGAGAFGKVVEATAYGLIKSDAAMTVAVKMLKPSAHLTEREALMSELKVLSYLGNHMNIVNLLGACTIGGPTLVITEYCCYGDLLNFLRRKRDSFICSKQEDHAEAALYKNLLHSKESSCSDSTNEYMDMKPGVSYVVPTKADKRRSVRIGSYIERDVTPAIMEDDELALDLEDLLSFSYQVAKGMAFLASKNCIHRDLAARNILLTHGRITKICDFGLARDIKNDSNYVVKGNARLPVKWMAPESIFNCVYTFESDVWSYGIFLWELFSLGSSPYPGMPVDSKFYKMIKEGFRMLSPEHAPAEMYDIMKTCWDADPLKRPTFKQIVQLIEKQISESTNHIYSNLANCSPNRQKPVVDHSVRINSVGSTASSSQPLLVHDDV

binding result (human CD117)	binding result (human CD105)	Binder
binds	–	anti-HuCD117 Ab2 Fab bDS (Fab, V domains shown, C-terminal cysteine in the heavy chain covalently coupled to DSPE-PEG(2k)-maleimide (lipid conjugate inserted into the LNP), Tested only as a lipid-Fab conjugate on the surface of LNPs) VH: EVQLVESGGGLVQPGGSLRLSCAASGFTFSDADMDWVRQAPGKGLEWVGRTRNKAGSYTTEYAASVKGRFTISRDDSKNSLYLQMNSLKTEDTAVYYCAREPKYWIDFDLWGRGTLVTVSS VL: not shown
–	binds	anti-HuCD105 Ab3 Fab bDS (Fab, V domains shown, C-terminal cysteine in the heavy chain covalently coupled to DSPE-PEG(2k)-maleimide (lipid conjugate inserted into the LNP), Tested only as a lipid-Fab conjugate on the surface of LNPs) VH: EVKLEESGGGLVQPGGSMKLSCAASGFTFSDAWMDWVRQSPEKGLEWVAEIRSKASNHATYYAESVKGRFTISRDDSKSSVYLQMNSLRAEDTGIYYCTRWRRFFDSWGQGTTLTVSS VL: QIVLSQSPAILSASPGEKVTMTCRASSSVSYMHWYQQKPGSSPKPWIYATSNLASGVPVRFSGSGSGTSYSLTISRVEAEDAATYYCQQWSSNPLTFGAGTKLELKR
